Laboratory results as given in patent US20240116985A1 (published 2024).
Starred links: 1 amine or outer side, 2 acyl side, 3 side chain; linkers in the order of their positions; H or OH if unused. Positions of bridges follow the written chain, without caps; N, C: chain ends. Non-standard residues stand in square brackets, D forms with d. Primed or numbered codes have the meaning given here. B5(10) = 2-amino-2-(pent-4-en-1-yl)hept-6-enoic acid, bis(4-pentenyl)glycine, stitching residue bearing both staples, C=CCCCC(CCCC=C)(N[*:1])C(=O)[*:2]; B5(4) = 2,2-bis(4-pentenyl)glycine = 2-amino-2-(pent-4-en-1-yl)hept-6-enoic acid (stitching residue), C=CCCCC(CCCC=C)(N[*:1])C(=O)[*:2]; B5(5) = 2,2-bis(4-pentenyl)glycine, 2-amino-2-(pent-4-en-1-yl)hept-6-enoic acid (stitching residue), C=CCCCC(CCCC=C)(N[*:1])C(=O)[*:2]; PyrS(3) = (S)-1-((allyloxy)carbonyl)-3-aminopyrrolidine-3-carboxylic acid, stapling residue, C=CCOC(=O)N1CC[C@@](N[*:1])(C(=O)[*:2])C1; B5(33) = 2-amino-2-(pent-4-en-1-yl)hept-6-enoic acid (bis-pentenylglycine, two olefin side chains), C=CCCCC(CCCC=C)(N[*:1])C(=O)[*:2]; PyrS″ = (S)-1-((allyloxy)carbonyl)-3-aminopyrrolidine-3-carboxylic acid (stapling residue), C=CCOC(=O)N1CC[C@@](N[*:1])(C(=O)[*:2])C1; PyrS = (S)-1-((allyloxy)carbonyl)-3-aminopyrrolidine-3-carboxylic acid, C=CCOC(=O)N1CC[C@@](N[*:1])(C(=O)[*:2])C1; B5(3) = 2,2-bis(4-pentenyl)glycine (stitching residue), C=CCCCC(CCCC=C)(N[*:1])C(=O)[*:2]; B5 = 2-amino-2-(pent-4-en-1-yl)hept-6-enoic acid, C=CCCCC(CCCC=C)(N[*:1])C(=O)[*:2]; Phe(3-CF3) = N[C@@H](Cc1cccc(C(F)(F)F)c1)C(=O)O; Phe(4-CF3) = N[C@@H](Cc1ccc(C(F)(F)F)cc1)C(=O)O; Bip = N[C@@H](Cc1ccc(-c2ccccc2)cc1)C(=O)O; 1Nal = N[C@@H](Cc1cccc2ccccc12)C(=O)O; 2Nal = N[C@@H](Cc1ccc2ccccc2c1)C(=O)O; Bta = N[C@@H](Cc1csc2ccccc12)C(=O)O; hTyr = N[C@@H](CCc1ccc(O)cc1)C(=O)O; αAllylPro = C=CC[C@@]1(C(=O)O)CCCN1; d(αMeL) = CC(C)C[C@@](C)(N)C(=O)O; hPhe = N[C@@H](CCc1ccccc1)C(=O)O; 2Pal = N[C@@H](Cc1ccccn1)C(=O)O; R8 = C=CCCCCCC[C@@](C)(N)C(=O)O; S8 = C=CCCCCCC[C@](C)(N)C(=O)O

T1: full-length beta-Catenin (Uniprot ID P35222) (Homo sapiens (Human), UniProt P35222 2-781)
T1 construct: also called B-Catenin; bCat
T1 sequence: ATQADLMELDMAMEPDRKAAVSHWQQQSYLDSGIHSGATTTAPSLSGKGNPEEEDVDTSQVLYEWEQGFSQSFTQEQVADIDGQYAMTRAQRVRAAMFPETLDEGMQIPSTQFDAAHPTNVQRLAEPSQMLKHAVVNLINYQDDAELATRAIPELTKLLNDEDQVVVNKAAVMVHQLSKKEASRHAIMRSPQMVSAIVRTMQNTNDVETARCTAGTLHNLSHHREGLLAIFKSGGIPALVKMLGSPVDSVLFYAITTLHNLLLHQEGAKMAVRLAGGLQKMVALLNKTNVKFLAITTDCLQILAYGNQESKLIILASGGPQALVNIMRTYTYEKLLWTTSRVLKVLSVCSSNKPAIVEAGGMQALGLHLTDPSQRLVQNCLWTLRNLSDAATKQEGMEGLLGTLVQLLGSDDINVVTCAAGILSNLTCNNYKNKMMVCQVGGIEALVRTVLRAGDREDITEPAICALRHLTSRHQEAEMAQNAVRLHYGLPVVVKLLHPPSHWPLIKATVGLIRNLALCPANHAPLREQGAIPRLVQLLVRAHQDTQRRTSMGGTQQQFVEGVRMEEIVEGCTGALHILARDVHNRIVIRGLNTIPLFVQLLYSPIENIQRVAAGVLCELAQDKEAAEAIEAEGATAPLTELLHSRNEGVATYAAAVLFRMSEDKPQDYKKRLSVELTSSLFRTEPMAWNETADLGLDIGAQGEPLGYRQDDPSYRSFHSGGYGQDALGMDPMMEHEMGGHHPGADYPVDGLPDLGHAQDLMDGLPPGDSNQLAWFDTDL

T2: full-length beta-Catenin (Uniprot ID P35222) (Homo sapiens (Human), UniProt P35222 2-781)
T2 construct: The AlphaScreen assay used a Histidine (Nickel Chelate) detection kit, so a His tag is likely, but no tag is described; also called B-Catenin; bCat
T2 sequence: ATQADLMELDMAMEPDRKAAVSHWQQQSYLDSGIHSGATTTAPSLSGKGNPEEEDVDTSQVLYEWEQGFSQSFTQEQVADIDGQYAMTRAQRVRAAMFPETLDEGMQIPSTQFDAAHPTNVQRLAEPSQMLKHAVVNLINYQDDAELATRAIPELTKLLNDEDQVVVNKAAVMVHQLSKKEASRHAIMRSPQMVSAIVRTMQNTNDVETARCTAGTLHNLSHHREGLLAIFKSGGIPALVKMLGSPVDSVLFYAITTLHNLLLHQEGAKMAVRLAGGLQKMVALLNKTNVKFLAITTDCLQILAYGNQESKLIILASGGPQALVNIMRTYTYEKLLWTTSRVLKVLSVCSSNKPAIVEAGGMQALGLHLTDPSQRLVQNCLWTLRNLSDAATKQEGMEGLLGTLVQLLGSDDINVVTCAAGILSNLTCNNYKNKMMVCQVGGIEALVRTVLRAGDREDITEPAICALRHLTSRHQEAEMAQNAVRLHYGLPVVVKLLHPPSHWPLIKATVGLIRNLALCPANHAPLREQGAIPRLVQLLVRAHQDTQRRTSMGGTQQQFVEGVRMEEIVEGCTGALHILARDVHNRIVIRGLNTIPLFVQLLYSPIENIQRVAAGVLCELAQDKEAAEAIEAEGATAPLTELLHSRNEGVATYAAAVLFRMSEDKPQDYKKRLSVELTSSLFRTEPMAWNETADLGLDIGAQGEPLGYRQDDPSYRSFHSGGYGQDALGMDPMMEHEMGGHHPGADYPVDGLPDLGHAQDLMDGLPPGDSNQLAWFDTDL


Tests used:
[1] = target: T1, full-length beta-Catenin (Uniprot ID …); assay: Alphascreen competition; biotin-TCF4(10-53) probe with full-length beta-catenin
Experimental: (§1) Equal volume of the titrated peptide was added to the plate and incubated for 15 minutes at 20° C. Then 4 uL of donor and 4 uL acceptor beads at 10 ug/mL were added to the plate, for a 16 uL reaction pool and protected from light for 60 minutes at 20° C. prior to read. Reads were performed on a CLARIOstar plate reader (BMG Labtech) in duplicate, and data were fitted to a 1:1 binding model with hill slope using an in-house script. All provided concentrations are final concentrations.

[2] = target: T2, full-length beta-Catenin (Uniprot ID …); assay: AlphaScreen competition: full-length beta-catenin + biotin-TCF4(10-53) probe, peptide titrated
Experimental: as §1

| Binder | EC50 [1] [µM] | EC50 [2] [µM] |
| --- | --- | --- |
| Ac-[αAllylPro]DA[B5(10)]DEAAFV[S8]FW-NH2 (staple 1-4, 4-11, Stitched (two-staple) peptide composition) [I-128] | 0.907 |  |
| Ac-FDA[R8]DDAA[hTyr]V[PyrS(3)]FWQ-NH2 (staple 4-11, Stapled peptide composition) [I-120] | 4.55 |  |
| Ac-[αAllylPro]DA[B5(4)]D[2Nal]AAFV[S8]FWQ-NH2 (staple 1-4, 4-11, Stapled peptide composition; also called Ac-PL3-Asp-Ala-B5-Asp-2NapA-Ala-Ala-Phe-Val-S8-Phe-Trp-Gln-NH2) [I-232] |  | 7.64 |
| XDAXDNAAFVXFWQ (not fully specified; as printed: Ac-PL3-Asp-Ala-B5-Asp-Asn-Ala-Ala-Phe-Val-S8-Phe-Trp-Gln-NH2; staples PL3(1)-B5(4) and B5(4)-S8(11), Stitched (two-staple) peptide composition) [I-124] | 1.28 |  |
| Ac-[αAllylPro]DA[B5(33)]DQAAFV[S8]FWQ-NH2 (staple 1-4, 4-11, Stitched (two-staple) peptide composition) [I-126] | 1.48 |  |
| Ac-[αAllylPro]DA[B5]D[d(αMeL)]AAFV[S8]FWQ-NH2 (staple 1-4, 4-11, Stapled peptide composition; also called Ac-PL3-Asp-Ala-B5-Asp-DaMeL-Ala-Ala-Phe-Val-S8-Phe-Trp-Gln-NH2) [I-215] |  | ≥ 10 |
| Ac-FDA[R8]DDAAFT[PyrS″]FWQ-NH2 (staple 4-11, Stapled peptide composition; also called Ac-Phe-Asp-Ala-R8-Asp-Asp-Ala-Ala-Phe-Thr-PyrS-Phe-Trp-Gln-NH2) [I-222] |  | 6.58 |
| Ac-[αAllylPro]DA[B5(3)]D[1Nal]AAFV[S8]FWQ-NH2 (staple 1-4, 4-11, Stapled peptide composition; also called Ac-PL3-Asp-Ala-B5-Asp-1NapA-Ala-Ala-Phe-Val-S8-Phe-Trp-Gln-NH2) [I-234] |  | 7.53 |
| Ac-FDA[R8]D[2Nal]AAFV[PyrS″]FWQ-NH2 (staple 4-11; also: later-eluting HPLC peak (staple isomer), Stapled peptide composition) [I-116] | 3.64 |  |
| Ac-[αAllylPro]DA[B5(4)][2Pal]EAAFV[S8]FWQ-NH2 (staple 1-4, 4-11; also: separate staple isomer composition, Stapled peptide composition; also called Ac-PL3-Asp-Ala-B5-2pyrA-Glu-Ala-Ala-Phe-Val-S8-Phe-Trp-Gln-NH2) [I-230] |  | 4.61 |
| Ac-[αAllylPro]DA[B5(3)]D[Bip]AAFV[S8]FWQ-NH2 (staple 1-4, 4-11, Stapled peptide composition; also called Ac-PL3-Asp-Ala-B5-Asp-Bip-Ala-Ala-Phe-Val-S8-Phe-Trp-Gln-NH2) [I-235] |  | 7.34 |
| Ac-[αAllylPro]DA[B5(5)]DDAA[Phe(3-CF3)]V[S8]FWQ-NH2 (staple 1-4, 4-11; not fully specified; printed as Ac-PL3-Asp-Ala-B5-Asp-Asp-Ala-Ala-3F3MeF-Val-S8-Phe-Trp-Gln-NH2, Stapled peptide composition; also called Ac-PL3-Asp-Ala-B5-Asp-Asp-Ala-Ala-3F3MeF-Val-S8-Phe-Trp-Gln-NH2) [I-239] |  | 0.267 |
| Ac-FDA[R8]DDAA[hPhe]V[PyrS″]FWQ-NH2 (staple 4-11; also: earlier-eluting HPLC peak (staple isomer), Stapled peptide composition) [I-117] | ≥ 10 |  |

The next lines start with the values.

| EC50 [1] [µM] | EC50 [2] [µM] | Binder |
| --- | --- | --- |
|  | 4.12 | Ac-FDA[R8]DDAAFT[PyrS]FWQ-NH2 (staple 4-11, Stapled peptide composition; also called Ac-Phe-Asp-Ala-R8-Asp-Asp-Ala-Ala-Phe-Thr-PyrS-Phe-Trp-Gln-NH2) [I-224] |
|  | ≥ 10 | Ac-[αAllylPro]DA[B5(4)]D[d(αMeL)]AAFV[S8]FWQ-NH2 (staple 1-4, 4-11, Stapled peptide composition; also called Ac-PL3-Asp-Ala-B5-Asp-DaMeL-Ala-Ala-Phe-Val-S8-Phe-Trp-Gln-NH2) [I-216] |
| 4.94 |  | Ac-FDA[R8]DDAA[hTyr]V[PyrS(3)]FWQ-NH2 (staple 4-11, Stapled peptide composition; same description as I-120, separate earlier-eluting HPLC peak (staple isomer)) [I-119] |
|  | 3.47 | Ac-[αAllylPro]DA[B5(5)]DDAA[Phe(4-CF3)]V[S8]FWQ-NH2 (staple 1-4, 4-11; not fully specified; printed as Ac-PL3-Asp-Ala-B5-Asp-Asp-Ala-Ala-4F3MeF-Val-S8-Phe-Trp-Gln-NH2, Stapled peptide composition; also called Ac-PL3-Asp-Ala-B5-Asp-Asp-Ala-Ala-4F3MeF-Val-S8-Phe-Trp-Gln-NH2) [I-241] |
|  | 4.12 | Ac-FDA[R8]DDAAFT[PyrS″]FWQ-NH2 (staple 4-11, Stapled peptide composition; also called Ac-Phe-Asp-Ala-R8-Asp-Asp-Ala-Ala-Phe-Thr-PyrS-Phe-Trp-Gln-NH2) [I-223] |
|  | 6.53 | Ac-[αAllylPro]DA[B5(4)]D[Bta]AAFV[S8]FWQ-NH2 (staple 1-4, 4-11, Stapled peptide composition; also called Ac-PL3-Asp-Ala-B5-Asp-BztA-Ala-Ala-Phe-Val-S8-Phe-Trp-Gln-NH2) [I-231] |
